# System: Saccharomyces cerevisiae
# Assay: transcriptional activation domain activity (GFP:mCherry ratio, weighted mean of sorted bins, harmonized to initial dataset scale) (arbitrary fluorescence ratio units); higher = stronger transcriptional activation
# Conditions: beta-estradiol 1 µM; induction time 4 h
# Method in brief: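 Barcoded tiles were sequenced after cells were sorted into 8 bins by GFP:mCherry ratio. Before sorting, cultures had been diluted 1:5 into SC with 1 uM beta-estradiol and held for 4 hours at 30 °C. The tiles were fused to an estradiol-inducible synthetic transcription factor and integrated at URA3 in yeast diploids carrying a GFP reporter. Activation activity is the read-weighted mean of bin median fluorescence, averaged over barcodes and linearly mapped onto the initial dataset scale, and tiles under 50 reads were left out.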
row,Sequence,transcriptional activation domain activity
1,AVWGTGYGKYFVLVLCLFAGINITSCWVLIKYLGGLTWCTLFFKNRLLWINFV,60400
2,RTFLRWTLDTLAQCTTFEVMWLILTGVIQDYIDEYKRNRTLTKLLIEALIKSY,55500
3,MYCSLQTLLFRFFAYWQGMTFFGFLFCFHVLGSQNLFFGSCFVLLLMQLLCLF,58900
4,EGGEGGSGSGSGGNAKTRRKGRRRGSSRDGAGAGAGAGAGEGAGGEVGRSKKK,7430
5,MVIRYGKLNLKYHPVHCLNHFQILCLSWAFCALLDPVGLIVSILLWKLLPTIE,69300
6,TFLLLSMPALLLLFSALGVCFLLSTSGLFFLSTSGFFFLLTTSGFFFFLFFML,37100
7,DESPDADATKREKKKKKQKKRKVLQKEEEEEAEAARDKRERKKRKKSKSDIRR,39200
8,SCDNIDNAEDKCSYALEYCMDATPGLLNYIQLYYCSSVKPFVFIVLCLWLLFL,36000
9,MDGVGLGSHRGSGSSSSSSSSAADRAPRHSTRRKRGRESRGAVVVIAATNRPN,39200
10,KFWFFLLFYYGFYNLTALLMVSQYFNLYSFHWWPKSIGGLWSTFFFWLFSMFL,58400
11,MFTFNASSTINITLSILCYFIFLISVLLIRLYLNNSFMLFSLFFFFYFIYVIL,61200
12,AILLGEAYGYRILPFVPVWTIFATVNLAYAVCSTSWLLYWVYLVCCWPTLLIV,55500
13,GLTLLCLRRILQLWAGSDQLSELVSYVPVHLRVLAMRDAAVFAPLSRKVLQAL,57700
14,LRLSTTISAYGIGIGYTAAVLVQVLSIVILILLESTTFALRLVLFVVGAWWLI,46900
15,IFVLDIIQVRCNYFFFLSFLFIWMRSMFFLCSNRLVALFLFYFSGSTLRVTIM,51300
16,VCVRVDWPWLSFPTALVLLTVVLFVTVLVIARRSQVSEGQPIWKSSSIVAFFH,41100
17,HLYQISLLLSIFVFFSQGLCRFLYYLPPVPFLTHISSTKLWVWIGLVACLTLK,65800
18,MPLMIIFRFTIFIFILFQFLSFPSFGRGVFLSFIFFFIIFFSFHDQLFLILFF,57000
19,RTESYDHMEPVGVDPRWDAFGPFHDYLLQAFPLVHSTLSLTKVNTWGLVYVWP,47400
20,DNDYNLDDTNNDNTNSMQSILEDFVSSEEALKFMPDAGRDARRYSEVVTSSFP,89300
21,KSDVEADRQRLIYSGKVLKDDDILSSCKIQSGHTVHMVKGAARAAAASSSSAP,58300

row,Sequence,transcriptional activation domain activity
1,TTKPKEASKPKEDPKPRSKSPVKKEETKVEKPKEDPPKAEAKSIPATTAAAAV,59300
2,TSLESAPVHVPMHCGIQGVVGSLGVLVSASVVQCVRASIARDSEGGMEWMRVE,33600
3,YQKLLVDARQAAEMFFKMLHYELWTHLLERLLRLRQMCNHWSLCKKKGMENCR,54300
4,GGLWNLVMWHWMLSFLAGICCFFLQILTYIWLQESSVIRISTSCLAGFWILPL,91700
5,MAPWDDAPAPFAADGDADDVTGSELAERFNKESGKVNAQLSAFPSALLCGRDK,61900
6,AVPGEVTEAEANGETDKAEGAAPAEGDAEKPKKKKKKSAKKPKSTGAEGEAAE,24700
7,LASLTPLISRRTPATTHARPHSTTQIPHRHHSAEMAEEQKPVVVADAPAAPAV,27800
8,MGMAYGVCCMYFLEPWWVGAISLVRFLGVGVFTLCMYFPSIMIFYFLLFFIIF,51000
9,DEEGRKRGGEREKGQHAGDERRRRRRRGEREGRERQKEGRRGPGRQSKDGKEG,49500
10,ICIIPFVNGFLCEPILPLVFFCSSLTLSESWFIFCIGLVVGLWLYTLVAGVCF,37300
11,MVQYIMSSKLLLSCINLLRSSILCTMLYLSFFGNFLLCHMIFGLWFYFMMHHE,53300
12,KFFVRHQHKLYYVILSLGRFNLHNLSFTYLFTAPRVRYRWLEIFGICVFFTWY,55900
13,TFARHTDQKWLEEVITEALNELAGLGIVRAHLIALRWCSERITITRVYCSRLL,43300
14,GFLLSYSLIRLSLTSHLLFGVFLLIQDIMLVLFSLYPTYPILLFSFLIFIGSF,35500
15,PSPFPPSLSPPLFPPFPPLPLCPPFLPLFPPSPLSPPFLPLFPPLFLPLSFPP,50200
16,MEWVRTARGRVPPGRRPVEGGYESSGARLYHALAVVDGVRVPGKTGEHLGGCN,32000
17,EEDEEDEDDDDDDDDDDDDDDDDDDEKPVHHKKPAHHRHHHKSKPVHHESQPA,< 6570
18,SRVVYRDGRRHHYCVTSFDVLSSGILYIICGALDNIWLVTIERVVLSIMACRV,81500
19,IVLYLRCFWLSVMFYTYSLFFIKMTFLLNYYRLLLVSKMRSVCIAAIVIIVLW,72100
20,MPHYNSFNMDFSKLRNACGIVLLHWRRYRRILWLIAKNFMRLRGLVSLFDSGP,48600
21,DDPGATPHDPNDPKRPRACEACRGLKVKCEPDPSNPDGPCKRCAKAGRNCVVT,16300

row,Sequence,transcriptional activation domain activity
1,MRRVARSTKGGKVRSLAALVVVGNGNGVGGFGEGRAVDSAQAVAKATAAATKN,32500
2,RPDVVLIQAGLWARFWLFIVISHALLEYHTFADGICLCYVSTVVFLIRHAKLW,68100
3,DADMIVRLALKARLRWLLPKLTWLRIYFDGLYSNGDVLRVLILPKLLHLLIMC,66000
4,MHKHFVVTLIMFFYFFFLFLLRGRCWNCTPLPTLIPSTASGVLLIVFLSYVVH,26400
5,GKKKGKRGKGKGKRGRGKGRGEREGWQGKAAGKEGAGKKGAGEGEQGKGSRGK,44300
6,NNTTSLGNAYGVCVMFVTFFDSCMVSLAALIVWRLPYYVVFLPWLVFACLDGV,52100
7,VCVCVWELVLVLVVWCCHCFSFVHSLHFLPWLLFSSPLVFLFPFPFFFFCLFL,68600
8,AFVNFIYVEDLLNFARTKLGVKWYFSHNLCIYVITHLLHRNMFSSEKVLQMSY,83400
9,LGTTLLIVVKMLLNWETIDCWGLIYKKMVIGQFMSEMYRIAAGGGKRRVPWAK,60800
10,PSSLVAQGQCAVAGDDVLEALAIRGIDFKLYAGILLLIALVYRLLLYIVLVFK,66100
11,MLDVNMSCPFADIRYLLVFSCYFADYLLMLQIWGFCLWLFTLIYMVGGVWLMV,34300
12,NRRDASPEPHHKGKGKGKKNNRREAEADAEIEVREPHHKGKGKGKKNNAREAE,21700
13,TEVHVARERIMSYALNLFQLAAGPSEYLANLQTGYHYVACLQWLLRFKIFALV,57300
14,MYVCVYIFGCYLFGFMIFVYFFPIYFFNSLFSCSYFFFLLIYSFILFIYSVAA,44800
15,MIHYPPLLQSPRLVCTLLCSVDVIWLWFNHLFTLFITWRGVLFFLSFFTLLFF,51600
16,ILVMWTVISCPVFSFPDRGHGSMLFFLFKLCLVMLLTYLVTMLWFLCVFSIVV,52100
17,FKVGIDGCLRLRGAGSTLCFHRVVRILTATIGTMVRVLFVCKELWRVTGEETS,51700
18,MLFIFFVIFFYFFLFSSIFFYHFIFLFSLELSLYFVDLSLELIPIYFPVCILS,46300
19,PKCSSLRKPTNTLQGTNHAYHEHILNTDMDLKILEDLCNISSLYEVPFGKHIN,115000

# Reference: the supplement of paper PMC12636428
